The record followed here is patent US20160339053A1.

The assay addresses recombinant mouse ICAM-1 (mouse) (UniProt P13597). Kind of assay: cell-based or functional assay.
Chain of UniProt P13597 (P13597 28-485 limits assumed): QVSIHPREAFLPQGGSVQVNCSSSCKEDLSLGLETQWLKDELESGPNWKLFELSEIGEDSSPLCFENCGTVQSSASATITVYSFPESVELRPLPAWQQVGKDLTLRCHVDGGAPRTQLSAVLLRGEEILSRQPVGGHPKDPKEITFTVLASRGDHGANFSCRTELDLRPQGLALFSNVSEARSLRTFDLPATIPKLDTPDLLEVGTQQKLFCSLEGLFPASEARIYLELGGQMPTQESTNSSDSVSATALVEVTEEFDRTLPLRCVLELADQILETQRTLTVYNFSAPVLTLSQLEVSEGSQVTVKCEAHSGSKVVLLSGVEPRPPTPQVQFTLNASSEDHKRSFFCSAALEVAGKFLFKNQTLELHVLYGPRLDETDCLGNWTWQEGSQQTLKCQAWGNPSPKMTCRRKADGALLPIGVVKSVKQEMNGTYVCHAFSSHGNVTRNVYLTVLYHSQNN

With “LFA-1 on mouse preactivated CD4+ T cells (from UniProt P24063 24-1162; P11835 24-771) (receptor)”, the adhesion of WT preactivated CD4+ T cells to ICAM-1-coated plates (percent of input cells) is 10% and the adhesion of WT preactivated CD4+ T cells to ICAM-1-coated plates, fold over basal after CXCL12, CCL21 or anti-CD3 was 2 to 5 fold.
